In experiment [1] the target is T1, recombinant IL-17 (human IL-17, interleukin 17A) (human, UniProt Q16552 24-155).
T1 construct: Serial dilutions of recombinant IL-17 from 1 ng/ml in ELISA; also called IL-17A; CTLA8
Put plainly: sandwich ELISA: AF-317 coated as capture, mAb4538 as detection, IL-17A titrated. A general note: ELISA stands for enzyme-linked immunosorbent assay.

The target in experiment [2] is T1, recombinant IL-17 (human IL-17, …). Put plainly: competition in sandwich ELISA: IL-17A mixed with 10ug/ml modulator, free IL-17A detected with DuoSet DY317 (MAB317 capture, BAF317 detection).

Results on three molecules are retold here after patent US20220365100A1 (Janssen / Centocor, published 2022).

T1 sequence (Q16552 24-155 limits assumed): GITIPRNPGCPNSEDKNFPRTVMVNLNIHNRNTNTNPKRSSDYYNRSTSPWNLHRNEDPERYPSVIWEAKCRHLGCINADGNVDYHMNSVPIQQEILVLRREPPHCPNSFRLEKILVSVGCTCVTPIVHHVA

B1: mAb4538 (antibody, human IgG1, lambda, V domains shown)
VH: QVQLQQSGPGLVKPSQTLSLTCAISGDSVSSSSAAWGWIRQSPSRGLEWLGRISYRSKWYNDYAVSVKSRITINPDTSKNQFSLQLNSVTPEDTAVYYCAREVDSMYYSYFDIWGQGTLVTVSS
VL: EIVLTQSPATLSLSPGERATLSCRASQNVWAFYLAWYQQKPGQAPRLLIYGASNRATGIPARFSGSGSGTDFTLTISSLEPEDFAVYYCQQYRSTLSLTFGQGTKVEIKG
notes: also called detection agent; anti-IL-17 antibody from Janssen Biotech, Inc
As to B1, the binding result in experiment [1] is “binds”.

B2: mAb732 (antibody, human IgG1, lambda, V domains shown)
VH: QVQLQQSGPGLVKPSQTLSLTCAISGDSVSSSSAAWGWIRQSPSRGLEWLGRISYRSKWYNDYAVSVKSRITINPDTSKNQFSLQLNSVTPEDTAVYYCAREVDSMYYSYFDIWGQGTLVTVSS
VL: EIVLTQSPATLSLSPGERATLSCRASQNVWAFYLAWYQQKPGQAPRLLIYGASNRATGIPARFSGSGSGTDFTLTISSLEPEDFAVYYCTQYYSSPSLTFGQGTKVEIKG
notes: also called LM modulator of IL-17
Turning to B2, the binding result in experiment [2] is listed as “binds”.

B3: mAb7024 (antibody, human IgG1, lambda, V domains shown)
VH: QVQLVQSGAEVKKPGSSVKVSCKASGGTFSSYAISWVRQAPGQGLEWMGSIIPWFGTTNYAQKFQGRVTITADESTSTAYMELSSLRSEDTAVYYCARDSEYYFDHWGQGTLVTVSS
VL: DIQMTQSPSSVSASVGDRVTITCRASQGISNWLNWYQQKPGKAPKLLIYAASSLQSGVPSRFSGSGSGTDFTLTISSLQPEDFATYYCQQYSDDPTFGQGTKVEIKG
notes: as for B2
Consider B3, for which, in experiment [2], the binding result is on record as “binds”.
